Experimental data reported in patent publication US20140221623A1 (Ablynx, published 2014).

T1: Human soluble IL6-R (human, UniProt P08887 20-358)
T1 construct: Bought soluble receptor; biotinylated in some Alphascreen assays; also called sIL6-R; hIL-6R
T1 sequence (looked up): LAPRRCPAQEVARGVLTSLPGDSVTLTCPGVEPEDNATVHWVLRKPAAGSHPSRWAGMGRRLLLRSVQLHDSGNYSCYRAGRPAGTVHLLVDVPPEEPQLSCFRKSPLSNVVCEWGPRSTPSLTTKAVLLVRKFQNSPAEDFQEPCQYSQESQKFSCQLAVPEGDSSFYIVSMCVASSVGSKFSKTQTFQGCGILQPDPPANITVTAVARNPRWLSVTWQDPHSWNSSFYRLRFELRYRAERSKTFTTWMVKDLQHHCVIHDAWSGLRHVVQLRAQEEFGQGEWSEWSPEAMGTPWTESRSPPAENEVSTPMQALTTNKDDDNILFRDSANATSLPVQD

B1: IL6R81 (VHH)
VHH: EVQLVESGGGLVQPGGSLRLSCAASGFTFDDYGMSWVRQAPGRATEWVSAISWNGNNTYYTESMKGRFTISRDNAKNTVYLQMNSLRPEDTAVYYCVKGSTAIVGVPPTYPDEYDYWGQGTLVTVSS
notes: Humanized variant of IL6R13
B2: IL6R83 (VHH)
VHH: EVQLVESGGGLVQPGGSLRLSCAASGFTFDDYGMSWVRQAPGRATEWVSAISWNGNNTYYTESMKGRFTISRDNAKNTLYLQMNSLRPEDTAVYYCVKGSTAIVGVPPTYPDEYDYWGQGTLVTVSS
notes: Humanized variant of IL6R13
B3: IL6R82 (VHH)
VHH: EVQLVESGGGLVQPGGSLRLSCAASGFTFDDYGMSWVRQAPGKGLEWVSAISWNGNNTYYTESMKGRFTISRDNAKNTVYLQMNSLRPEDTAVYYCVKGSTAIVGVPPTYPDEYDYWGQGTLVTVSS
notes: Humanized variant of IL6R13
B4: IL6R86 (VHH)
VHH: EVQLVESGGGLVQPGGSLRLSCAASGFTFDDYGMSWVRQAPGRALEWVSAISWNGNNTYYTESMKGRFTISRDNAKNTLYLQMNSLRPEDTAVYYCVKGSTAIVGVPPTYPDEYDYWGQGTLVTVSS
notes: Humanized variant of IL6R13
B5: IL6R84 (VHH)
VHH: EVQLVESGGGLVQPGGSLRLSCAASGFTFDDYGMSWVRQAPGKGLEWVSAISWNGNNTYYTESMKGRFTISRDNAKNTLYLQMNSLRPEDTAVYYCVKGSTAIVGVPPTYPDEYDYWGQGTLVTVSS
notes: Humanized variant of IL6R13
B6: PMP 30 A10 (VHH)
VHH: EVQLVESGGGLVQPGGSLRLSCAASGFTFDDYGMSWVRQAPGKGLEWVSAISWNGGSTYYTESMKGRFTISRDNAKNTVYLQMNSLKPEDTAVYYCVKGSTAIVGVPPTYPDEYDYWGQGTQVTVSS
notes: also called PMP30A10(t)
B7: PMP 33 C10 (VHH)
VHH: EVQLVESGGGLVQPGGSLRLSCAASGFTFDDYGMSWVRQAPGKGLEWVSAISWNGGSTYYTESMKGRFTISRDNAKNTVYLQMNSLKPEDTAVYYCVKGSTAIVGVPPTYPDEYDYWGQGTQVTVSS
notes: also called PMP33C10(t)
B8: IL6R87 (VHH)
VHH: EVQLVESGGGLVQPGGSLRLSCAASGFTFDDYGMSWVRQAPGKATEWVSAISWNGNNTYYTESMKGRFTISRDNAKNTLYLQMNSLRPEDTAVYYCVKGSTAIVGVPPTYPDEYDYWGQGTLVTVSS
notes: Humanized variant of IL6R13
B9: IL6R85 (VHH)
VHH: EVQLVESGGGLVQPGGSLRLSCAASGFTFDDYGMSWVRQAPGRGLEWVSAISWNGNNTYYTESMKGRFTISRDNAKNTLYLQMNSLRPEDTAVYYCVKGSTAIVGVPPTYPDEYDYWGQGTLVTVSS
notes: Humanized variant of IL6R13
B10: IL6R89 (VHH)
VHH: EVQLVESGGGLVQPGGSLRLSCAASGFTFDDYGMSWVRQAPGRGTEWVSAISWNGNNTYYTESMKGRFTISRDNAKNTLYLQMNSLRPEDTAVYYCVKGSTAIVGVPPTYPDEYDYWGQGTLVTVSS
notes: Humanized variant of IL6R13
B11: IL6R90 (VHH)
VHH: EVQLVESGGGLVQPGGSLRLSCAASGFTFDDYGMSWVRQAPGKALEWVSAISWNGNNTYYTESMKGRFTISRDNAKNTLYLQMNSLRPEDTAVYYCVKGSTAIVGVPPTYPDEYDYWGQGTLVTVSS
notes: Humanized variant of IL6R13
B12: IL6R61 (VHH)
VHH: EVQLVESGGGLVQPGGSLRLSCAASGSIFKVNAMGWYRQAPGKGRELVAGIISGGSTNYADSVKGRLTISRDNAKNTVYLQMNSLRPEDTAVYYCSFVTTNSDYDLGRDYWGQGTLVTVSS
notes: Humanized variant of IL6R03
B13: IL6R62 (VHH)
VHH: EVQLVESGGGLVQPGGSLRLSCAASGSIFKVNAMGWYRQAPGKGRELVAGIISGGSTNYADSVKGRFTISRDNAKNTVYLQMNSLRPEDTAVYYCSFVTTNSDYDLGRDYWGQGTLVTVSS
notes: Humanized variant of IL6R03
B14: IL6R63 (VHH)
VHH: EVQLVESGGGLVQPGGSLRLSCAASGSIFKVNAMGWYRQAPGKGRELVAGIISGGSTNYADSVKGRLTISRDNAKNTLYLQMNSLRPEDTAVYYCSFVTTNSDYDLGRDYWGQGTLVTVSS
notes: Humanized variant of IL6R03
B15: IL6R65 (VHH)
VHH: EVQLVESGGGLVQPGGSLRLSCAASGSIFKVNAMGWYRQAPGKGRELVAGIISGGSTNYADSVKGRFTISRDNAKNTLYLQMNSLRPEDTAVYYCAFVTTNSDYDLGRDYWGQGTLVTVSS
notes: Humanized variant of IL6R03
B16: IL6R64 (VHH)
VHH: EVQLVESGGGLVQPGGSLRLSCAASGSIFKVNAMGWYRQAPGKGRELVAGIISGGSTNYADSVKGRLTISRDNAKNTVYLQMNSLRPEDTAVYYCAFVTTNSDYDLGRDYWGQGTLVTVSS
notes: Humanized variant of IL6R03
B17: PMP 33 A2 (VHH)
VHH: EVQLVESGGGLVQPGGSLRLSCAASGFSLDYYAIGWFRQAPGKEREGVSCMDSSGGTTSTYYSDSVKGRFTISRDDAKNTVYLQMNSLKPEDTAVYYCAADGHLNWGQRYVPCSQISWRGWNDYWGQGTQVTVSS
notes: also called PMP33A2(t)
B18: PMP 34 F8 (VHH)
VHH: EVQLVESGGGLVQPGGSLRLSCAASGFSLDYYAIGWFRQAPGKEREGVSCMDSSDGTTNTYYSDSVKGRFTISRDDAKNTVYLQMNSLKPEDTASYYCAADGHLNWGQPYVPCSQISWRGWNDYWGQGTQVTVSS
notes: also called PMP34F8(t)
B19: PMP 28 A2 (VHH)
VHH: EVQLVESGGGLVQPGGSLRLSCAASGFTFGSYDMSWVRQAPGKGPEWVSAINSGGGSTYYADSVKGRFTISRDNAKNTLYLQMNSLKPEDTAVYYCATDWRYSDYDLPLPPPGDYWGQGTQVTVSS
notes: also called PMP28A2(t)
B20: PMP 28 D4 (VHH)
VHH: EVQLVESGGGLVQPGGSLRLSCAASGFTFGSYDMSWVRQAPGKGPEWVSAINSGGGSTYYADSVKGRFTISRDNAKNTLYLQMNSLKPEDTAVYYCATDWRYSDYDLPLPPPGDYWGQGTQVTVSS
notes: also called PMP28D4(t)
B21: PMP 28 C7 (VHH)
VHH: EVQLVESGGGLVQPGGSLRLSCAASGFTFGSYDMSWVRQAPGKGPEWVSAINSGGDNTYYADSVKGRFTISRDNAKNTLYLQMNSLKPEDTAVYYCATDWRYSDYDLPLPPPGDYWGQGTQVTVSS
notes: also called PMP28C7(t)
B22: IL6R71 (VHH)
VHH: EVQLVESGGGLVQPGGSLRLSCAASGFTFDDYDIGWFRQAPGKGREGVSGISSSDGNTYYADSVKGRFTISSDNAKNTVYLQMNSLRPEDTAVYYCAAEPPDSSWYLDGSPEFFKYWGQGTLVTVSS
notes: Humanized variant of IL6R04
B23: IL6R75 (VHH)
VHH: EVQLVESGGGLVQPGGSLRLSCAASGFTFSDYDIGWFRQAPGKGREGVSGISSSDGNTYYADSVKGRFTISRDNAKNTLYLQMNSLRPEDTAVYYCAAEPPDSSWYLDGSPEFFKYWGQGTLVTVSS
notes: Humanized variant of IL6R04
B24: IL6R72 (VHH)
VHH: EVQLVESGGGLVQPGGSLRLSCAASGFTFSDYDIGWFRQAPGKGREGVSGISSSDGNTYYADSVKGRFTISSDNAKNTVYLQMNSLRPEDTAVYYCAAEPPDSSWYLDGSPEFFKYWGQGTLVTVSS
notes: Humanized variant of IL6R04
B25: PMP 31 C5 (VHH)
VHH: EVQLVESGGGLVQAGGSLRLSCAASGFTFDDYAIGWFRQAPGKEREGVSCISSSDGSTYYADSVKGRFTISSDNAKNTVYLLMNSLKPEDTAVYYCAAEPPDSMWSLDGSPEFFKFWGQGTQVTVSS
notes: also called PMP31C5(t)
B26: IL6R73 (VHH)
VHH: EVQLVESGGGLVQPGGSLRLSCAASGFTFDDYDIGWFRQAPGKGREGVSGISSSDGNTYYADSVKGRFTISRDNAKNTVYLQMNSLRPEDTAVYYCAAEPPDSSWYLDGSPEFFKYWGQGTLVTVSS
notes: Humanized variant of IL6R04
B27: PMP 31 D2 (VHH)
VHH: EVQLVESGGGLVQAGGSLRLSCAASGFTFDDYAIGWFRQAPGKEREGVSGISSSDGNTYYADSVKGRFTISSDNAKNTVYLQMNSLKPEDTAVYYCAAEPPDSNWYLDGSPEFFKFWGQGTQVTVSS
notes: also called PMP31D2(t)
B28: PMP 32 F10 (VHH)
VHH: EVQLVESGGGLVQAGGSLRLSCAASGFTFDDYAIGWFRQAPGKEREGISCISSSDGSTYYADSVKGRFTISSDNAKNTVYLQMNSLKPEDTAVYYCAAEPPDSSWILDGSPEFFKFWGQGTQVTVSS
notes: also called PMP32F10(t)
B29: IL6R74 (VHH)
VHH: EVQLVESGGGLVQPGGSLRLSCAASGFTFDDYDIGWFRQAPGKGREGVSGISSSDGNTYYADSVKGRFTISSDNAKNTLYLQMNSLRPEDTAVYYCAAEPPDSSWYLDGSPEFFKYWGQGTLVTVSS
notes: Humanized variant of IL6R04

Tests used:
Human soluble IL6-R [1] = biological target: T1, Human soluble IL6-R; test: SPR (Biacore 3000), IL6-R on CM5 chip
Human soluble IL6-R [2] = biological target: T1, Human soluble IL6-R; test: SPR (Biacore), off-rate

| Binder | Kd (Human soluble IL6-R [1]) | koff (Human soluble IL6-R [1]) | kon (Human soluble IL6-R [1]) | koff (Human soluble IL6-R [2]) |
| --- | --- | --- | --- | --- |
| B1 | 0.4 nM | 0.000128 s⁻¹ | 320000 M⁻¹ s⁻¹ | – |
| B2 | 0.34 nM | 0.00012 s⁻¹ | 350000 M⁻¹ s⁻¹ | – |
| B3 | 5.07 nM | 0.00314 s⁻¹ | 619000 M⁻¹ s⁻¹ | – |
| B4 | – | 0.0017 s⁻¹ | – | – |
| B5 | 5.36 nM | 0.00409 s⁻¹ | 762000 M⁻¹ s⁻¹ | – |
| B6 | – | – | – | 0.00268 s⁻¹ |
| B7 | – | – | – | 0.00308 s⁻¹ |
| B8 | – | 0.000105 s⁻¹ | – | – |
| B9 | – | 0.00206 s⁻¹ | – | – |
| B10 | – | 0.00019 s⁻¹ | – | – |
| B11 | – | 0.00192 s⁻¹ | – | – |
| B12 | 2 nM | 0.0017 s⁻¹ | 850000 M⁻¹ s⁻¹ | – |
| B13 | 2.22 nM | 0.00207 s⁻¹ | 929000 M⁻¹ s⁻¹ | – |
| B14 | 3.69 nM | 0.00365 s⁻¹ | 990000 M⁻¹ s⁻¹ | – |
| B15 | 4 nM | 0.00235 s⁻¹ | 600000 M⁻¹ s⁻¹ | – |
| B16 | – | 0.001 s⁻¹ | – | – |
| B17 | – | – | – | 0.0005 s⁻¹ |
| B18 | – | – | – | 0.000142 s⁻¹ |
| B19 | – | – | – | 0.00124 s⁻¹ |
| B20 | – | – | – | 0.00185 s⁻¹ |
| B21 | – | – | – | 0.00131 s⁻¹ |
| B22 | 0.22 nM | 0.000153 s⁻¹ | 703000 M⁻¹ s⁻¹ | – |
| B23 | < 0.1 nM | < 0.0001 s⁻¹ | 1e+06 M⁻¹ s⁻¹ | – |
| B24 | 0.33 nM | 0.00018 s⁻¹ | 543000 M⁻¹ s⁻¹ | – |
| B25 | – | – | – | 0.000111 s⁻¹ |
| B26 | 0.33 nM | 0.000233 s⁻¹ | 698000 M⁻¹ s⁻¹ | – |
| B27 | – | – | – | 0.000281 s⁻¹ |
| B28 | – | – | – | 0.00058 s⁻¹ |
| B29 | 0.16 nM | 0.000122 s⁻¹ | 767000 M⁻¹ s⁻¹ | – |
